Test [1] deals with T1, human CD38 on transiently transfected Expi293 cells (Origene #SC321273) (human, UniProt P28907 1-300).
T1 construct: whole, on cells; also called Human (FACs)
Description: flow cytometry, transfected Expi293 cells. (A flow cytometer gives signals particle by particle.)

Test [2] deals with T2, murine CD38 on transiently transfected Expi293 cells (Origene MC208001) (murine, UniProt P56528 1-304).
T2 construct: whole, on cells; also called Murine (FACs)
T2 sequence (looked up): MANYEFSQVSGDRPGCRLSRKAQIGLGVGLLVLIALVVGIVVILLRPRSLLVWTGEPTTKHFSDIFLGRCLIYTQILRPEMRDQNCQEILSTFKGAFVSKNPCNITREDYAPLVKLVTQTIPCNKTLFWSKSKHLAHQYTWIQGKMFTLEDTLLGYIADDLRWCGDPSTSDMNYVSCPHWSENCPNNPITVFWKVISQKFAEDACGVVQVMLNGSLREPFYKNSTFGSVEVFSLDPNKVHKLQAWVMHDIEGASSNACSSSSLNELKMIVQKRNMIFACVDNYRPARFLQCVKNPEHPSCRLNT
The test is described as follows: flow cytometry, transfected Expi293 cells.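 Further: antibody binding to Expi293 cells transiently expressing human or murine CD38, antibodies applied at 10 ug/ml for 60 min on ice, read by flow cytometry as percent gated cells.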

Test [3] concerns the target T3, His-tagged human CD38 (ACRO Biosystems cat #CD8-H5224) (human, UniProt P28907 43-300).
T3 construct: bought recombinant protein with His tag
Description: ELISA, coated His-CD38. A general note: An ELISA detects its analyte on a solid surface through an enzyme-linked reagent.

Test [4] addresses T4, His-tagged cynomolgus monkey CD38 (ACRO Biosystems cat #CD8-05223) (cynomolgus monkey, UniProt Q5VAN0 43-301).
T4 construct: bought recombinant protein with His tag
Description: ELISA, coated His-CD38.

Test [5] has as its target T3, His-tagged human CD38 (ACRO Biosystems …). Description: SPR, captured scFv-Fc, His-CD38 analyte.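 Further: SPR on a Carterra LSA, scFv-Fc captured by anti-human Fc on HC30M chip, His-tagged CD38 (human, mouse, cynomolgus) flowed as analyte in eight 1:2 steps from 400 nM.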 On the technique in general: In SPR one partner is held on a chip, and binding of the other changes the refractive index at the surface.
Test [6] deals with T5, His-tagged mouse CD38 (ACRO Biosystems #CD8-M5223) (mouse, UniProt P56528 45-304).
T5 construct: bought recombinant protein with His tag; also called Murine
T5 sequence (looked up): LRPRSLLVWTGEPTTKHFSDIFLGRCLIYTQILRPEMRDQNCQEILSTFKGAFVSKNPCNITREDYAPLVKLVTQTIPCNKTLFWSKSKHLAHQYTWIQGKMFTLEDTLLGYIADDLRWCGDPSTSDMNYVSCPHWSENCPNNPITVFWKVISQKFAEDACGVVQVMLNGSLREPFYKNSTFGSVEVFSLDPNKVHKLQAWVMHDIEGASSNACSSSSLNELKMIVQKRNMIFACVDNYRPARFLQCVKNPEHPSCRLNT
Description: SPR, captured scFv-Fc, His-CD38 analyte.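 Further: SPR on a Carterra LSA, scFv-Fc captured by anti-human Fc on HC30M chip, His-tagged CD38 (human, mouse, cynomolgus) flowed as analyte in eight 1:2 steps from 400 nM.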

Test [7] has as its target T4, His-tagged cynomolgus monkey CD38 (ACRO …). Description: SPR, captured scFv-Fc, His-CD38 analyte.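 Further: SPR on a Carterra LSA, scFv-Fc captured by anti-human Fc on HC30M chip, His-tagged CD38 (human, mouse, cynomolgus) flowed as analyte in eight 1:2 steps from 400 nM.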
The target of test [8] is T5, His-tagged mouse CD38 (ACRO Biosystems …). The test is described as follows: ELISA, coated His-CD38.

B1: 40596p1.H7 (scFv, V domains shown)
VH: EVQLLESGGGLVQPGGSLRLSCAASGFDFSTYAMTWVRQAPGKGLEWVAGNGWSGSFTYYADSVKGRFTVSRDNSKNTLYLQMNSLRAEDTAVYYCTRNPGFGEMDVWGQGTTVTVSS
VL: EIVLTQSPGTLRLSPGERATLSCRASQTVGTTLAWYQQKPGQAPRLLIHGASTRATDIPDRFSGSGSGTEFTLTISSLQSEDFADYYCQQYKSWPPLTFGGGTKVEIK
notes: tested as scFv-Fc supernatant
Consider B1, for which the “FACs 10 ug/ml (percent gated)” value in test [1] came to 71.7%; in test [2] it was 62.8%. The “ELISA 1 ug/ml” value in test [3] is 1.94; in test [4] it was 1.89. Also, the Kd (usually the equilibrium constant for the complex coming apart) in test [5] stood at 0.0867 µM; in test [6], 0.0516 µM; in test [7] it was 0.114 µM.

B2: 40566p1.A7 (scFv, V domains shown)
VH: RELVESGGGVVRPGESLRLSCAASGFTFDNYDMTWVRQAPGEGLEWVSFISSRGTFTYYTDSVRGRFTISRDNSKNTLYLEMNSLRAEDTAIYYCAKDSGEYYFFDYWGLGTLVTVSS
VL: EIVMTQSPATLSVSPGERATFSCRASQSVNSKLAWYQQKPGQAPRLLIYGASRRATGIPDRFSGSGSGTEFTLTISSLQSEDFAVYYCQQYYDWPPLTFGGGTKVEIK
notes: tested as scFv-Fc supernatant
With B2, the “FACs 10 ug/ml (percent gated)” value in test [1] came out at 14.2%; in test [2], 72.8%. For the same molecule, the “ELISA 1 ug/ml” value was determined as 1.99 in test [3], 2.12 in test [8] and 1.85 in test [4]. For the same molecule, the Kd is 202 µM in test [5], 0.00131 µM in test [6] and 0.00266 µM in test [7].

B3: 40566p1.D2 (scFv, V domains shown)
VH: DVQLVESGGGVVRPGESLRLSCAASGFTFDNYDMTWVRQAPGEGLEWVSFISSRGTFTYYTDSVKGRFTISRDNSKNTLYLQMNSLRAEDTAIYYCTKDSGEYYFFDYWGLGTLVTVSS
VL: EIVMTQSPATLSVSPGERATFSCRASQSVNSKLAWYQQKPGQAPRLLIYGASRRATGIPDRFSGSGSGTEFTLTISSLQSEDFAVYYCQQYYDWPPLTFGGGTKVEIK
notes: tested as scFv-Fc supernatant
Turning to B3, the “FACs 10 ug/ml (percent gated)” value in test [1] stood at 20.1%; in test [2] it was 71.2%. Moreover, the “ELISA 1 ug/ml” value came to 1.96 in test [3], 1.74 in test [8] and 1.83 in test [4]. Also, the Kd turned out to be 0.0118 µM in test [5], 0.00174 µM in test [6] and 0.0298 µM in test [7].

B4: 40566p1.B3 (scFv, V domains shown)
VH: DVQLVESGGGVVRPGESLRLSCAASGFTFDNYDMTWVRQAPGEGLEWVSFISSRGTFTYYTDSVRGRFTISRDNSKNTLYLEMNSLRAEDTAIYYCAKDSGEYYFFDYWGLGTLVTVSS
VL: EIVMTQSPATLSVSPGERATFSCRASQSVNSKLAWYQQKPGQAPRLLIYGASRRATGIPDRFSGSGSGTEFTLTISSLQSEDFAVYYCQQYYDWPPLTFGGGTKVEIK
notes: tested as scFv-Fc supernatant
On to B4, for which the “FACs 10 ug/ml (percent gated)” value in test [1] was 21.1%; in test [2], 74.1%. For the same molecule, the entries for the “ELISA 1 ug/ml” value in test [3], in test [8] and in test [4] were 1.89, 1.93 and 1.81, respectively. Moreover, the Kd in test [5] came to 43.8 µM; in test [6] it was 0.00132 µM; in test [7], 0.00568 µM.

B5: 40566p1.F1 (scFv, V domains shown)
VH: DVQLVESGGGVVRPGESLRLSCAASGFTFDNYDMTWVRQAPGEGLEWVSFISSRGTFTYYTDSVKGRFTISRDNSKNTLYLQMNSLRAEDTAIYYCTKDSGEYYFFDYWGLGTLVTVSS
VL: ETVMTQSPATLSVSPGERATFSCRASQSVNGKLAWYQQKPGQAPRLLIYDASRRATGIPDRFSGSGSGTEFTLTISSLQSEDFAVYYCQQYYDWPPLTFGGGTKVEIK
notes: tested as scFv-Fc supernatant; also called 40566p1.Fl
With B5, the “FACs 10 ug/ml (percent gated)” value stood at 32% in test [1] and 76% in test [2]. For the same molecule, the “ELISA 1 ug/ml” value stood at 1.83 in test [3], 2.17 in test [8] and 1.95 in test [4]. In addition, the figures for the Kd in test [6] and in test [7] were 0.000375 µM and 3.88 µM, respectively.

B6: 40566p1.G9 (scFv, V domains shown)
VH: DVQLVESGGGVVRPGESLRLSCAASGFTFDNYDMTWVRQAPGEGLEWVSFISSRGTFTYYADSVKGRFTISRDNSKNTLYLQMNSLRAEDTAIYYCAKDSGEYYFFDYWGLGTLVTVSS
VL: EIVMTQSPATLSVSPGERATFSCRASQSVNSKLAWYQQKPGQAPRLLIYGASRRATGIPDRFSGSGSGTEFTLTISSLQSEDFAVYYCQQYYDWPPLTFGGGTKVEIK
notes: tested as scFv-Fc supernatant
Turning to B6, the “FACs 10 ug/ml (percent gated)” value worked out at 17.8% in test [1] and 70.7% in test [2]. For the same molecule, the “ELISA 1 ug/ml” value in test [3] stood at 1.82; in test [8] it was 1.93; in test [4] it was 1.86. Besides, in test [6], the Kd worked out at 0.0048 µM.

B7: 40566p1.B11 (scFv, V domains shown)
VH: DVQLVESGGGLVRPGESLRLSCAASGFTFDNYDMTWVRQAPGEGLEWVSFISSRGTFTYYTDSVKGRFTISRDNSKNTLYLQMNSLRAEDTAIYYCAKDSGEYYFFDYWGLGTLVTVSS
VL: EIVMTQSPATLSVSPGERATFSCRASQSVNSKLAWYQQKPGQAPRLLIYGASRRATGIPDRFSESGSGTEFTLTISSLQSEDFAVYYCQQYHDWPPLTFGGGTKVEIK
notes: tested as scFv-Fc supernatant
Take B7: the “FACs 10 ug/ml (percent gated)” value in test [1] came out at 6.05%; in test [2] it was 49.9%. In addition, the “ELISA 1 ug/ml” value is 1.43 in test [3], 1.24 in test [8] and 1.44 in test [4]. The Kd stood at 0.104 µM in test [5], 0.224 µM in test [6] and 0.549 µM in test [7].

B8: 40566p1.C1 (scFv, V domains shown)
VH: DVQLVESGGGVVRPGESLRLSCAASGFTFDNYDMTWVRQAPGEGLEWVSFISSRGTFTYYTDSVKGRFTISRDNSKNTLYLQMNSLRAEDTAIYYCTKDSGEYYFFDYWGLGTLVTVSS
VL: ETVMTQSPATLSVSPGERATFSCRASQSVNSKLAWYQQKPGQAPRLLIYGASRRATGIPDRFSGSGSGTEFTLTISSLQSEDFAVYYCQQYYDWPPLTFGGGTKVEIK
notes: tested as scFv-Fc supernatant
With B8, the “FACs 10 ug/ml (percent gated)” value in test [1] came out at 26.4%; in test [2], 75.3%. Further, the “ELISA 1 ug/ml” value in test [3] worked out at 1.92; in test [8], 1.86; in test [4], 1.74. Also, the Kd in test [5] amounted to 0.465 µM; in test [6] it was 0.000478 µM.

B9: 40566p1.A8 (scFv, V domains shown)
VH: DVQLVESGGGVVRPGESLRLSCAASGFTFDNYDMTWVRQAPGEGLEWVSFISSRGTFTYYTDSVKGRFTISRDNSKNTLYLQMNSLRAEDTAIYYCAKDSGEYYFFDYWGLGTLVTVSS
VL: EIVMTQSPATLSVSPGERATFSCRASQSVNSKLAWYQQKPGQAPRLLIYGASRRATGIPDRFSGSGSGTEFTLTISSLQSEDFAVYYCQQYYDWPPLTFGGGTKVEIK
notes: tested as scFv-Fc supernatant
B9: the “FACs 10 ug/ml (percent gated)” value in test [1] was found to be 17.8%; in test [2], 70.8%. Moreover, the “ELISA 1 ug/ml” value stood at 1.87 in test [3], 1.9 in test [8] and 1.9 in test [4]. Besides, the Kd in test [5] turned out to be 0.000872 µM; in test [6], 0.00581 µM.

B10: 40566p1.G12 (scFv, V domains shown)
VH: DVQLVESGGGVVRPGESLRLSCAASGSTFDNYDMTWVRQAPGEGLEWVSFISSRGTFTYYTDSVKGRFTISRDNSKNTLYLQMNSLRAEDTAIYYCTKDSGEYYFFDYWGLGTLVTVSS
VL: EIVMTQSPATLSVSPGERATFSCRASQSVNSKLAWYQQKPGQAPRLLIYDASRRATGIPDRFSGSGSGTEFTLTISSLQSEDFAVYYCQQYYDWPPLTFGGGTKVEIK
notes: tested as scFv-Fc supernatant
Take B10: the “FACs 10 ug/ml (percent gated)” value stood at 7.52% in test [1] and 68.5% in test [2]. Further, the “ELISA 1 ug/ml” value worked out at 1.58 in test [3], 1.65 in test [8] and 1.62 in test [4]. In test [6], this molecule registered a Kd of 0.00207 µM.

B11: 40566p1.B12 (scFv, V domains shown)
VH: DVQLVESGGGVVRPGESLRLSCAASGFTFDNYDMTWVRQAPGEGLEWVSFISSRGIFTYYADSVKGRFTISRDNSKNTLYLQMNSLRAEDTAIYYCAKDSGEYYFFDYWGLGTLVTVSS
VL: EIVMTQSPATLSVSPGERATFSCRASQSVNSKLAWYQQKPGQAPRLLIYGASRRATGIPDRFSGSGSGTEFTLTISSLQSEDFAVYYCQQYYDWPPLTFGGGTKVEIK
notes: tested as scFv-Fc supernatant
Take B11: the “FACs 10 ug/ml (percent gated)” value in test [1] came out at 8.31%; in test [2], 57.7%. The “ELISA 1 ug/ml” value came to 1.72 in test [3], 1.62 in test [8] and 1.6 in test [4]. In addition, the Kd in test [5] stood at 470 µM; in test [6], 0.0256 µM.

The values above are taken from patent US20220306762A1 (CRYSTAL BIOSCIENCE, published 2022).
